Reference: patent publication US20190085082A1 (CANCER RESEARCH TECHNOLOGY, published 2019)

Key:
[1] = target: T1, full length human CLEC14A on cells (engineered CHO, SEND or 293 cells; HUVECs) (human, UniProt Q86T13 22-490); assay: fluorescence microscopy of HUVEC treated with CRT-3, antibody localisation at 0 and 90 minutes
T1 construct: HUVECs express it naturally; also called huCLEC
T1 sequence: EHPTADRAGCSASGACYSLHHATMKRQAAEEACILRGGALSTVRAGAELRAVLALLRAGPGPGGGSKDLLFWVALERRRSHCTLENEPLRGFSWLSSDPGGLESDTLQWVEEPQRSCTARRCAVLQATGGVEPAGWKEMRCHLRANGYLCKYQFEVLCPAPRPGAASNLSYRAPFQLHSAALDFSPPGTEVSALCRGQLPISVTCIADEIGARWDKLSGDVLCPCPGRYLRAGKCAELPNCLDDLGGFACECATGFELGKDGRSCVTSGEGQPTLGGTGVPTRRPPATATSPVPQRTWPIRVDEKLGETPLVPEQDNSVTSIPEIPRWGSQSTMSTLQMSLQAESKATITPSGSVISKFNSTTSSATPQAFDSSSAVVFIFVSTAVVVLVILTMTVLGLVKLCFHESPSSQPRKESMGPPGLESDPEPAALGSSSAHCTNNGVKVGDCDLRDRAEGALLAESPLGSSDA

[2] = target: T2, thrombomodulin (CD141), wild type, with C-terminal GFP tag, expressed on HEK293T cells (UniProt P07204 19-575); assay: flow cytometry, HEK293T cells transfected with thrombomodulin (C-terminal GFP tag, GFP-positive cells gated)
T2 construct: whole, on cells; also called WT CD141; VVT CD141; not shown: C-terminal GFP tag

[3] = target: T3, murine CLEC14A-Fc fusion protein (mouse, UniProt Q8VCP9 22-386); assay: ELISA of hybridoma supernatants on absorbed antigen
T3 construct: extracellular domain; also called CM; mCLEC14A-Fc; not shown: human Fc tag from the pcDNA3-Fc plasmid
T3 sequence (looked up): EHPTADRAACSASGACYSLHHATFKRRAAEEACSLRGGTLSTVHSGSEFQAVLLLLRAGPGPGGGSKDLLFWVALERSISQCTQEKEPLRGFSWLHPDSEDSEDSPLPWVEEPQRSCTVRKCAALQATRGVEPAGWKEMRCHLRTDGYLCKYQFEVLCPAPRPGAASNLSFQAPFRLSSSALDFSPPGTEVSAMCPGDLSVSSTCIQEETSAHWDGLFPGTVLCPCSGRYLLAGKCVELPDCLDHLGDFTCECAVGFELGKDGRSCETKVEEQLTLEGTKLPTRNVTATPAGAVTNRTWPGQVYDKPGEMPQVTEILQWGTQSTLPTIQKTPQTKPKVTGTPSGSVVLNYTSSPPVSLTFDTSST
Method: More than 500 HAT-resistant hybridoma clones from each mouse were obtained. All of the clone supernatants were tested twice with 4 days interval by ELISA against three absorbed antigens (CM, CH and Fc). […] The positives were cloned 2-4 times by the limiting dilution method, propagated in culture flasks and injected into mice for ascites. One clone (CRT-3) was the result of immunisation with CLEC14a human-AP (CHAP), and the other clone (CRT-2) was the result of immunisation with CLEC14a mouse-AP (CM-AP).

T2 sequence (P07204 19-575): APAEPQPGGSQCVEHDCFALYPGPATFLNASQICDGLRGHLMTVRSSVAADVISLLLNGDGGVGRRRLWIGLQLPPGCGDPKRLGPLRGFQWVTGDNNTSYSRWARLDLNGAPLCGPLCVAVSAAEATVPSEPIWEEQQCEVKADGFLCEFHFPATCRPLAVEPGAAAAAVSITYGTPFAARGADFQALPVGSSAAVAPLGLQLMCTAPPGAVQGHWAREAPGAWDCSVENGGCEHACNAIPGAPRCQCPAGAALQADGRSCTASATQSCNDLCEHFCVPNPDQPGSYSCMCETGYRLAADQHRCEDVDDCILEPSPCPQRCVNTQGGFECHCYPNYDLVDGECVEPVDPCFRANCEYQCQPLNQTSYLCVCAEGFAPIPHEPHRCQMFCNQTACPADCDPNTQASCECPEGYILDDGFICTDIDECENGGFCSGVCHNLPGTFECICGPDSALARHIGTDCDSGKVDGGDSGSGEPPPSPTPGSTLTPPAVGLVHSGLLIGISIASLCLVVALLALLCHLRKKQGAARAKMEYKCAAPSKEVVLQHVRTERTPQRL

binding result [1]: binds
binding result [2]: no binding
binding result [3]: binds
B1: CRT-3 anti-CLEC14A monoclonal antibody (antibody, IgG1, V domains shown)
VH: EVQLQQSGTVLARPGASVKMSCKASGYTFTSYWMHWVKQRPGQGLEWIGAIYPGNSDTSYNQKFKGKAKLTAVTSTSTAYMELSSLTNEDSAVFYCTHYYGSDYAMDYWGQGTSVTV
VL: QIVLTQSPAIMSASLGERVTMTCTASSSVSSSYLHWYQQKPGSSPKLWIYSTSNLASGVPARFSGSGSGTSYSLTISSMEAEDAATYYCHQYHRSPRTFGGGTKLEIKR
